Data published in article PMC8049779 (Biochemistry, 2020).

T1: LmFPPS (Leishmania major, UniProt Q4QBL1)
T1 sequence (Q4QBL1 1-362): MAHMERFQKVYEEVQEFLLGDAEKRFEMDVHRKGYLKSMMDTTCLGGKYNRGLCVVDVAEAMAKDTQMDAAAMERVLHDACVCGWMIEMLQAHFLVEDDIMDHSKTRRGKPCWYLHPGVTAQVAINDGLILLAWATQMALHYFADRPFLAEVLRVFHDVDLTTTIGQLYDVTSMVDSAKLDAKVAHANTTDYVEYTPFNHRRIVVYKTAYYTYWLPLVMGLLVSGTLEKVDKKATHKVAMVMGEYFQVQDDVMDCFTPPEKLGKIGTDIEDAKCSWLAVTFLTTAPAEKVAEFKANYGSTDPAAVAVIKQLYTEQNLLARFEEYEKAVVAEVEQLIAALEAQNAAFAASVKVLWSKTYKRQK


Key:
LmFPPS = molecular target: T1, LmFPPS; assay: SPR, steady-state affinity, protein immobilized on CM5 chip; type: binding
crystal structure = molecular target: the molecule itself; assay: crystal structure

Row | Molecule | Kd (LmFPPS) [µM] | binding result (crystal structure)
1 | CC(C)=CCC/C(C)=C/CC/C(C)=C/CO[P@@](=O)(O)OP(=O)(O)O [FPP] | 36.6 | –
2 | CC(C)=CCC/C(C)=C/COP(=O)(O)OP(=O)(O)O [GPP] | 0.049 | –
3 | E97Y-LmFPPS (Leishmania major farnesyl diphosphate synthase, E97Y mutant) (enzyme) MAHMERFQKVYEEVQEFLLGDAEKRFEMDVHRKGYLKSMMDTTCLGGKYNRGLCVVDVAEAMAKDTQMDAAAMERVLHDACVCGWMIEMLQAHFLVYDDIMDHSKTRRGKPCWYLHPGVTAQVAINDGLILLAWATQMALHYFADRPFLAEVLRVFHDVDLTTTIGQLYDVTSMVDSAKLDAKVAHANTTDYVEYTPFNHRRIVVYKTAYYTYWLPLVMGLLVSGTLEKVDKKATHKVAMVMGEYFQVQDDVMDCFTPPEKLGKIGTDIEDAKCSWLAVTFLTTAPAEKVAEFKANYGSTDPAAVAVIKQLYTEQNLLARFEEYEKAVVAEVEQLIAALEAQNAAFAASVKVLWSKTYKRQK | – | binds
4 | T164Y-LmFPPS (Leishmania major farnesyl diphosphate synthase, T164Y mutant) (enzyme) MAHMERFQKVYEEVQEFLLGDAEKRFEMDVHRKGYLKSMMDTTCLGGKYNRGLCVVDVAEAMAKDTQMDAAAMERVLHDACVCGWMIEMLQAHFLVEDDIMDHSKTRRGKPCWYLHPGVTAQVAINDGLILLAWATQMALHYFADRPFLAEVLRVFHDVDLTTYIGQLYDVTSMVDSAKLDAKVAHANTTDYVEYTPFNHRRIVVYKTAYYTYWLPLVMGLLVSGTLEKVDKKATHKVAMVMGEYFQVQDDVMDCFTPPEKLGKIGTDIEDAKCSWLAVTFLTTAPAEKVAEFKANYGSTDPAAVAVIKQLYTEQNLLARFEEYEKAVVAEVEQLIAALEAQNAAFAASVKVLWSKTYKRQK | – | binds
5 | T164W-LmFPPS (Leishmania major farnesyl diphosphate synthase, T164W mutant) (enzyme) MAHMERFQKVYEEVQEFLLGDAEKRFEMDVHRKGYLKSMMDTTCLGGKYNRGLCVVDVAEAMAKDTQMDAAAMERVLHDACVCGWMIEMLQAHFLVEDDIMDHSKTRRGKPCWYLHPGVTAQVAINDGLILLAWATQMALHYFADRPFLAEVLRVFHDVDLTTWIGQLYDVTSMVDSAKLDAKVAHANTTDYVEYTPFNHRRIVVYKTAYYTYWLPLVMGLLVSGTLEKVDKKATHKVAMVMGEYFQVQDDVMDCFTPPEKLGKIGTDIEDAKCSWLAVTFLTTAPAEKVAEFKANYGSTDPAAVAVIKQLYTEQNLLARFEEYEKAVVAEVEQLIAALEAQNAAFAASVKVLWSKTYKRQK | – | binds
